According to the supplement of paper PMC11908140:

B1: library; numbered along this chain (parent)
chain: MRKPRAAVGSGHRKQAASQEGRQKHAKNNSQAKPSACDGLARQPEEVVLQASVSSYHLFRDVAEVTAFRGSLLSWYDQEKRDLPWRRRAEDEMDLDRRAYAVWVSEVMLQQTQVATVINYYTGWMQKWPTLQDLASASLEEVNQLWAGLGYYSRGRRLQEGARKVVEELGGHMPRTAETLQQLLPGVGRYTAGAIASIAFGQATGVVDGNVARVLCRVRAIGADPSSTLVSQQLWGLAQQLVDPARPGDFNQAAMELGATVCTPQRPLCSQCPVESLCRARQRVEQEQLLASGSLSGSPDVEECAPNTGQCHLCLPPSEPWDQTLGVVNFPRKASRKPPREESSATCVLEQPGALGAQILLVQRPNSGLLAGLWEFPSVTWEPSEQLQRKALLQELQRWAGPLPATHLRHLGEVVHTFSHIKLTYQVYGLALEGQTPVTTVPPGARWLTQEEFHTAAVSTAMKKVFRVYQGQQPGTCMGSKRSQVSSPCSRKKPRMGQQVLDNFFRSHISTDAHSLNSAAQ

Variants of: B1
Experiment: 8OG:A repair function score (normalized; synonymous = 0, nonsense = -1) (normalized log-likelihood score); higher = more repair activity (WT-like)
Conditions: with 8OG:A DNA repair reporter (GFP) in HEK-293 MUTYH KO cells
Summary of the method: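 Lentiviral MUTYH cDNA NNN codon-scan libraries in HEK-293 MUTYH knockout cells (10 pg/ml doxycycline) were co-transfected with an 8OG:A GFP repair reporter plus mCherry. At 72 h, viable mCherry+ cells were sorted into GFP+ (repair) and GFP− bins, three replicates per tile, then tile amplicons were sequenced. Per-tile Rosace fitness scores became a normalized repair function score anchored on synonymous and nonsense distributions. Synonymous medians were set to 0 and nonsense to -1; variants under 300 counts per million at the start were removed.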

8OG:A repair function score of substitutions, site by site:
S344: Y 0.0271 | F -0.0252 | D -0.196 | W -0.0913 | T 0.00415 | A 0.0466 | H 0.0531 | I -0.0592 | M 0.0335 | R -0.0609 | V -0.00413 | C 0.0475 | E -0.0813 | K 0.0408 | L 0.00107 | P -0.301 | Q 0.019 | N 0.0332
R336: Y -0.18 | P -0.136 | V -0.148 | S -0.097 | W -0.0779 | T -0.118 | Q -0.218
K337: A -0.0726 | F -0.221 | G -0.0801 | R 0.000179 | L -0.136 | Y -0.118 | M -0.112 | C -0.225 | W -0.0779 | P 0.0544 | N -0.132 | Q -0.0917 | H -0.0482 | I -0.106 | T -0.131 | S -0.109 | E -0.0878 | V -0.116 | D -0.151
R340: Q -0.171 | C -0.18 | W -0.144 | K -0.0186 | G -0.129 | T -0.0938 | H -0.253 | L -0.211 | S -0.153 | P -0.328 | Y -0.205 | V -0.304 | D -0.385 | N -0.24 | E -0.133 | A -0.0533 | F -0.491 | I -0.119 | M -0.107
P339: L -0.113 | F -0.187 | V -0.0967 | M -0.0671 | N -0.17 | D -0.41 | I -0.0749 | E -0.374 | H 0.0544 | Y -0.144 | W -0.126 | T -0.0529 | K -0.0247 | A -0.12 | Q -0.0157 | G -0.00599 | C -0.157 | R -0.0864 | S -0.0594
E341: P -0.0298
